Source: the Human Domainome abundance scans (Beltran et al. 2025)

B1: Dynamin-binding protein, residues 242 to 304; numbered along this chain, Q6XZF7 (parent)
chain: EEPGTYGVALYRFQALEPNELDFEVGDKIRILATLEDGWLEGSLKGRTGIFPYRFVKLCPDTR

Variants of: B1
Experiment: abundance fitness (aPCA) (normalised: wild type 0, dead -1); higher = more abundant; growth selection in yeast, the domain comes from the species named
Settings: Homo sapiens

Abundance fitness: each site, then its substitutions
D37: C -0.195 | R -0.59 | V -0.561 | M -1.02 | P -0.476 | K -0.287 | I -0.89 | N -0.116 | H -0.274 | S -0.257 | A -0.452 | T -0.361 | L -0.663 | G -0.073 | E -0.407 | F -0.56 | Q -0.298
G42: C -0.859 | N -0.891 | H -0.282 | W -0.506 | V -0.575 | K -0.892 | F -0.745 | D -0.578 | A -0.702 | I -0.707 | T -0.997 | R -0.84 | S -0.846 | M -0.987 | P -0.872 | Y -0.924 | L -0.45
I31: H -0.448 | G -0.512 | M -0.755 | F -0.926 | Y -0.91 | D -0.743 | P -0.862 | V -0.463 | L -0.702 | A -1.03 | C -0.527 | S -0.879 | W -0.901 | T -0.722 | E -0.587 | R -0.883 | Q -0.084 | N -0.85 | K -0.85
I29: E -0.721 | Q -0.955 | Y -0.808 | A -0.702 | G -0.738 | N -0.845 | V -0.533 | M -0.735 | L -0.573 | P -0.35 | S -0.776 | F -0.561 | C -0.839 | R -0.649 | D -0.685 | W -0.823 | H -0.634 | T -0.639
E41: L -0.256 | H -0.072 | W 0.056 | N -0.527 | Y -0.274 | R -0.019 | S -0.116 | D -0.732 | M 0.073 | P -0.669 | C -0.115 | Q -0.064 | K 0.017 | G -0.76 | I -0.465
D27: S -0.695 | C -0.811 | R -0.79 | T -0.656 | Q -0.723 | G -0.776 | L -0.642 | E -0.316 | F -0.799 | H -0.927 | K -0.902 | N -0.424 | I -0.786 | M -0.537 | A -0.426 | V -0.934 | Y -0.587 | W -0.485
L35: D -0.664 | V -0.203 | G -0.374 | Q 0.009 | N -0.544 | C -0.178 | R 0.13 | T -0.339 | Y -0.187 | K 0.137 | H -0.114 | A -0.304 | W -0.642 | S -0.241 | F -0.315 | M -0.413 | E -0.876 | I -0.131
L32: G -0.635 | Y -0.744 | V -0.176 | D -0.495 | N -0.097 | R -0.592 | W -0.784 | H -0.008 | Q -0.243 | A -0.866 | P -0.687 | F -0.652 | I -0.19 | C -0.657 | M -0.394 | T -0.312 | K -0.588
G38: M -0.803 | P -1.06 | T -0.983 | F -0.71 | N -0.539 | R -0.482 | I -0.769 | W -1.05 | H -0.454 | K -1.06 | A -0.842 | L -0.61 | V -0.668 | E -0.633 | S -0.545
G26: V -0.844 | C -0.334 | A -0.86 | Y -0.847 | M -1.02 | P -1.07 | S -0.674 | Q -0.061 | I -0.744 | H -0.718 | T -0.831 | R -0.866 | E -1.01 | K -0.643 | D -0.568 | N -0.563 | F -0.682 | L -0.598
V25: L -0.933 | S -0.448 | R -0.223 | C -0.328 | P -0.14 | Q -0.548 | N -0.736 | T -0.412 | A -0.089 | E -0.475 | Y -0.463 | D -0.899 | M -0.169 | F -0.573 | G -0.539 | K 0.095 | I -0.142
S43: D -0.32 | C -0.245 | A -0.106
A33: T -0.009 | K 0.005 | Q -0.188 | C -0.291 | W -0.671 | L -0.644 | P -0.429 | S 0.043 | Y -0.568 | E -0.578 | G -0.201 | M -0.438 | F -0.726 | H -0.021 | V -0.445 | R 0.033 | I -0.703 | D -0.24 | N 0.017
W39: K -0.395 | Y -0.135 | G -0.714 | F -0.168 | N -0.406 | P -0.738 | E -0.379 | I -0.546 | L -0.184 | Q -0.285 | H -0.749 | R -0.144 | M -0.057 | S -0.56 | D -0.661 | A -0.56 | T -0.492
E36: L -0.698 | Q -0.312 | I -1.02 | R -0.331 | S -0.212 | F -0.711 | W -0.612 | T -0.277 | G -0.167 | A 0.027 | P -0.171 | V -0.777 | N -0.156 | K -0.099 | C -0.434
K28: R -0.05 | N -0.418 | T -0.282 | F -0.596 | A -0.7 | V -0.205 | P -0.553 | D -0.799 | Y -0.519 | I -0.278 | S -0.535 | H -0.044 | Q -0.604 | M -0.529 | G -0.711 | L -0.57 | E -0.157
T34: F -0.063 | I -0.168 | L -0.41 | V -0.192 | E -0.038 | S -0.077 | G -0.481 | P -0.59 | R -0.196 | M -0.086 | N -0.289 | H 0.067 | Q -0.183 | C -0.323 | K -0.036 | A -0.33 | D -0.114
R30: W -0.921 | C -0.367 | T -0.644 | S -0.41 | F -0.462 | E -0.328 | V -0.73 | P -0.15 | I -0.454 | A -0.155 | Y -0.398 | M -0.651 | L -0.148 | N -0.306 | K 0.268
E24: Y -0.423 | W -0.438 | N -0.032 | C -0.414 | H -0.199 | L -0.491 | M -0.313 | F -0.301 | Q -0.024 | D 0.009 | G -0.596 | A -0.593 | I -0.444 | T -0.278 | R -0.445 | P -0.75 | V -0.471
L40: G -0.383 | Q -0.312 | C 0.113 | I -0.244 | Y -0.259 | V 0.092 | A 0.18 | K -1.11 | S -0.325 | T -0.394 | W -0.473 | N -0.784 | F -0.393 | M -0.074 | P -0.642 | R -0.627
F23: S -0.527 | W -0.63 | T -0.775 | Y -0.688 | R -0.684 | V -0.334 | Q -0.767 | N -0.805 | P -1.09
